Experiments:
GST3 [1] = target: T1, GST3 (Novosphingobium sp. MBES04, UniProt A0A0S6WZT0); assay: conventional GST assay (specific activity); format: biochemical; settings: glutathione co-substrate
T1 construct: gene MBENS4_2527; N-terminal His6 tag (pRSET A), E. coli BL21(DE3), His-tag resin purified
T1 sequence (A0A0S6WZT0 1-226): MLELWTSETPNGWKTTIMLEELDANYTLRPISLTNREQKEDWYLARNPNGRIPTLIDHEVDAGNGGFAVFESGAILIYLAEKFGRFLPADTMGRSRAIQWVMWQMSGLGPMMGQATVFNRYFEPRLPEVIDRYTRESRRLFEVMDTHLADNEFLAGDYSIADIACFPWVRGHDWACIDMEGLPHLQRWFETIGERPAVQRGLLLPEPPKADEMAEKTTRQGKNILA

[2] = test system: COc1ccc(C(O)C(CO)Oc2ccccc2OC)cc1OC; assay: purified protein; settings: NAD cofactor
GST3 [3] = target: T1, GST3; assay: chiral HPLC of glutathione removal to GHP; format: biochemical; settings: glutathione 2.0 mM; 25 °C, 16 h; both conjugates (formed by GST4 and by GST5)
GST6 = target: T2, GST6 (Novosphingobium sp. MBES04, UniProt A0A0S6WVQ1); assay: chiral HPLC of glutathione removal to GHP; format: biochemical; settings: […] °C, […] h, both conjugates (formed by GST4 and by GST5)
T2 construct: gene MBENS4_2530; N-terminal His6 tag (pRSET A), E. coli BL21(DE3), His-tag resin purified
T2 sequence (A0A0S6WVQ1 1-283): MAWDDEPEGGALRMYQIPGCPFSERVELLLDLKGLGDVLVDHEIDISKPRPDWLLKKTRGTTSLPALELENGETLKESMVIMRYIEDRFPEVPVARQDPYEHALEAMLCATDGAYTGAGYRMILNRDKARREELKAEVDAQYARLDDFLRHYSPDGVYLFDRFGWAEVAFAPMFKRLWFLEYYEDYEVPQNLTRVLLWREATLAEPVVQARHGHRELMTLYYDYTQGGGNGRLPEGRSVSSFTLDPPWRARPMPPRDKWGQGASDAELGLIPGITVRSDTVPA

[4] = test system: COc1ccc(C(=O)C(CO)Oc2ccccc2OC)cc1OC; assay: purified protein; settings: GSH co-substrate, optimal pH 7−8, 40 °C (determined with MPHPV)
[5] = test system: COc1cc(C(=O)C(CO)Oc2ccccc2OC)ccc1O; assay: purified protein; settings: GSH co-substrate, optimal pH 7−8, 40 °C, 1:1 β(R)/β(S) mixture (acts on β(R))
purified protein [6] = substrate: COc1ccc(C(=O)C(CO)Oc2ccccc2OC)cc1OC; assay: purified protein; format: biochemical, Novosphingobium sp. MBES04; settings: GSH co-substrate, optimal pH 9, 35 °C (determined with MPHPV)
purified protein [7] = substrate: COc1cc(C(=O)C(CO)Oc2ccccc2OC)ccc1O; assay: purified protein; format: biochemical, Novosphingobium sp. MBES04; settings: GSH co-substrate, optimal pH 9, 35 °C, 1:1 β(R)/β(S) mixture (acts on β(S))
[8] = optimal conditions (pH 9–10, 30 °C)
[9] = optimal conditions (pH 9, 15 °C)

Q: Which “conventional GST assay (specific activity)” value (GST3 [1]) does the source give for `O=[N+]([O-])c1ccc(Cl)c([N+](=O)[O-])c1` [CDNB] here?
A: the activity of GST3 towards 1-chloro-2,4-dinitrobenzene (CDNB)

Q: With SDR5 (Novosphingobium sp. MBES04) as the molecule, how does the Km [2, 8] read?
A: 1100 µM

Q: What about the kcat [2, 8] of the same molecule?
A: 23.3 s⁻¹

Q: And the kcat/Km [2, 8]?
A: 21700 M⁻¹ s⁻¹

Q: SDR3 (Novosphingobium sp. MBES04) was tested. Which Km [2, 9] did it give?
A: 1500 µM

Q: What about the kcat [2, 9] of the same molecule?
A: 0.065 s⁻¹

Q: What about the kcat/Km [2, 9] of the same molecule?
A: 41.7 M⁻¹ s⁻¹

Q: Which “chiral HPLC of glutathione removal to GHP” value (GST3 [3]) does the source give for `COc1cc(C(=O)C(CO)SC[C@H](NC(=O)CC[C@H](N)C(=O)O)C(=O)NCC(=O)O)ccc1O` (stereo partly drawn) [GS-GHP] here?
A: the removal of glutathione from both glutathione conjugates of GHP produced by GST4 and GST5

Q: And the “chiral HPLC of glutathione removal to GHP” value (GST6)?
A: the removal of glutathione from both glutathione conjugates of GHP produced by GST4 and GST5

Q: Which Km [4] does the source give for GST5 (Novosphingobium sp. MBES04) here?
A: 780 µM

Q: And the kcat [4]?
A: 0.158 s⁻¹

Q: And the kcat/Km [4]?
A: 200 M⁻¹ s⁻¹

Q: And the Km [5]?
A: 290 µM

Q: And the kcat [5]?
A: 0.0583 s⁻¹

Q: And the kcat/Km [5]?
A: 200 M⁻¹ s⁻¹

B1: GST4 (Novosphingobium sp. MBES04) (protein)
chain: MLTLYSFGPGANSLKPLLALYEKGLEFTPRFVDPTKFEHHEEWFKKINPRGQVPALDHDGNVITESTVICEYLEDAFPDAPRLRPTDPVQIAEMRVWTKWVDEYFCWCVSTIGWERGIGPMARALSDEEFEEKVKRIPIPEQQAKWRSARAGFPKEVLDEEMRKIRVSIDRLEKRLSESTWLAGEDYTLADICNFAIANGMEKGFDDIVNTAATPNLVAWIERINARPACIEMFAKSKSEFAARKPFAKSEEQAQA
notes: N-terminal His6 tag (pRSET A), E. coli BL21(DE3), His-tag resin purified
Q: What does the source list for B1?
A: Km (purified protein [6]): 550 µM; kcat (purified protein [6]): 0.3 s⁻¹; kcat/Km (purified protein [6]): 533 M⁻¹ s⁻¹; Km (purified protein [7]): 470 µM; kcat (purified protein [7]): 0.75 s⁻¹; kcat/Km (purified protein [7]): 1580 M⁻¹ s⁻¹

Source: publication PMC4609964, “Combination of six enzymes of a marine Novosphingobium converts the stereoisomers of β-O-4 lignin model dimers into the respective monomers” (Scientific Reports, 2015)
